# Experimental data published in the RNAGym collection of RNA variant scans (doi:10.1073/pnas.2313332121).
# B1: TPR t1 (parent)
# chain: GACCAAUCUGCCCUCAGAGCUCGAGAACAUCUUCGGAUGCAGAGGAGGCAGGCUUCGGUGGCGCGAUAGCGCCAACGUCCUCAACCUCCAAUGCAUCCCACCACAUGAUGAUGCCUGAAGAGCCUUGGUUUUUUG
# Variants of: B1
# Assay: polymerase ribozyme fitness, log enrichment relative to wild type (log ratio); higher = more active; in vitro selection for triplet polymerase activity
# Procedure, shortened: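 To select mutant libraries of each subunit of a heterodimeric triplet polymerase ribozyme, built by PCR and transcribed, each was annealed with a biotinylated primer, partner subunit and triplets, then incubated frozen at −7 °C. Extended constructs were gel-excised, captured on streptavidin beads and amplified by RT-PCR, in one round carried out in triplicate. Illumina sequencing of input and output libraries kept genotypes with ≥10 input reads and ≥1 read per output. Fitness is the base-2 logarithm of genotype enrichment relative to wild-type enrichment, from inverse-variance-weighted replicate averages.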
row,Variant,polymerase ribozyme fitness (log ratio)
1,C13U C56U C97G G127A,-4.74
2,C13G U133A,-2.17
3,C13G U21C C49U C53G G117A A119G,-5.71
4,C13G G39U,-2.13
5,C13G G39A,-2.78
6,C13G G61A C70G C123U,-5.1
7,C13G G36U C101U U112C,-1.75
8,C13U A43G G60A U92G U116C,-3.1
9,C13G G44A,-2.85
10,C13G C82G C102A,-4.14
11,C13U A37C G57U,-0.0732
12,C13U A29U U55A G60A C101G,-4.15
13,C13U A84U,-0.00977
14,C13U C40U C124G,1.61
15,C13G C40G C85G C89G C123G,-4.99
16,C13G C115A,-1.77
17,C13A G110A,-1.4
18,C13G U59A,-1.41
19,C13A U14C A16C C115A A119G,-2
20,C13G G19U G61U C73U G113U,-5.34
21,C13U A29U,-1.8
22,C13U C72G,-0.128
23,C13U C72A,0.891
24,C13G U96C C101A,-3.35

row,Variant,polymerase ribozyme fitness (log ratio)
1,C13G C40A,-0.524
2,C13G C62U G113A,-2.67
3,C13G G45C C53U G63U C88A,-3.62
4,C13U C20U A74U U92A,-3.91
5,C13A U112A G120C,-0.261
6,C13U A50U G77C A121G C123U C124U G128U U131C,0.387
7,C13G G63C U87C,-3.11
8,C13G A43U C76U,-1.01
9,C13A G63A C72U G127C,-3.45
10,C13A G63U C70U,-0.406
11,C13U C79A C104A,-2.96
12,C13G A118U,-1.02
13,C13G C34A G39A,-5
14,C13A U21A G47U U109A,-5.74
15,C13U C56A C114U,-1.73
16,C13G C99U,-4.01
17,C13G A37G C53G G110U G113A,-5
18,C13U C70A C73U,-1.58
19,C13G C40A A84U U106A,-3.53
20,C13U A46G C104G,-5.37
21,C13U C62A U78C A118U G122A,-2.29
22,C13G C62A,-1.11
23,C13G C62G,-3.43
24,C13G C79A C86A,-5.8

row,Variant,polymerase ribozyme fitness (log ratio)
1,C13A U55C G69C G110U,-4.5
2,C13A U14A G44A C56U,-2.36
3,C13G A37G G117C,-4.68
4,C13A U14A U54A,-2.73
5,C13G C28U C101U,-4.7
6,C13U C56A C62U C97A C102U,-5.15
7,C13U A46U U54G A95U C123U,1.11
8,C13A G93U C98U,-4.03
9,C13G A84C C102U,-2.71
10,C13U C53U C114A G120C,-1.1
11,C13G C64U A95G U112C C124U,0.563
12,C13G A41U G117C,-5.86
13,C13G C70U U112G,-2.26
14,C13U A26G G60C G93C,-3.34
15,C13U C20U G120C C123G G127A,-2.54
16,C13U A18U A43C U59C G71U A105U,-4.76
17,C13G C40U C49A,-2.42
18,C13A U33G C124G,-4.34
19,C13G C56U U112C,0.0684
20,C13U A16U G45U G60U A95U C97U,-2.68
21,C13U C34A C64U A84C G113U,-4.89
22,C13U A66G C76U C88U G128C,-3.51
23,C13G A18C U38G C88A A121U,-3.5
24,C13U A27C A83U A84C C86A,-3.39

row,Variant,polymerase ribozyme fitness (log ratio)
1,C13U C62A,-0.888
2,C13U C62G,-0.959
3,C13U C85A A91C C104A G120C,-3.62
4,C13G C102A,-3.6
5,C13A U21C A50U C98U U106A C115U,-6.68
6,C13G U33C C72U U81A C101G G110U U132A,-6.08
7,C13A U87A G113A,-2.16
8,C13G A95G U112C C124U,1.05
9,C13U A37G A118G G127U G128U U131G,-0.0788
10,C13U C56U U67G G71U U106G C114G,-7.12
11,C13U C15A A91C,-4.3
12,C13U A16G A121U U129A,1.78
13,C13G U78C,-0.825
14,C13U C82U C85A G117A,-2.68
15,C13U C20U G61U C70U U92C,-4.03
16,C13U C20A A27G G39A G60A C115A,-5.26
17,C13U A29G G52U A74C,-1.84
18,C13G G57C C72U G113A,-2.96
19,C13U A18C G77A,-1.41
20,C13G C62U G120U,-0.935
21,C13G A27U G47U G63A U78A,-6.63
22,C13U A41G G60A C94U C115U,-1.95
23,C13G C82A,-2.47
24,C13G U32C,-2.08

row,Variant,polymerase ribozyme fitness (log ratio)
1,C13U A26U C40A U112A,-4.39
2,C13U C53U U92C C123G U131A,-0.0541
3,C13U C34U C88U,-4.18
4,C13G G113U,-2.94
5,C13U C20A U21G A24C G71C U112C C123A,-6.62
6,C13G A16U C56U A105G A111C,-4.91
7,C13G A119G,-0.865
8,C13G G69A C124A G128A,-4.44
9,C13G A50C C53G U96G,-3.94
10,C13G A50U U87C,-3.31
11,C13U C56U C124G U131C,2.69
12,C13A G93C,-2.4
13,C13U C79A A90C,-2.88
14,C13G C62A C82A,-3.18
15,C13G G45U C72U C89A G120U U130A,-2.6
16,C13U C56A,-0.36
17,C13G A119U C123U,1.58
18,C13U A66C U106A,-0.839
19,C13U C22U C82A C94A A121U U130A,-3.54
20,C13A U38A A46U C70G A121U,-5.9
21,C13A G120C,-0.417
22,C13G G48A G63A A83C,-3.74
23,C13U C73U G93C U106A A118G,-1.26
24,C13G G47U C73U C114A,-4.1

row,Variant,polymerase ribozyme fitness (log ratio)
1,C13U A27C,-2.05
2,C13U A27U,-2.33
3,C13A U38G G58U,-2.03
4,C13U A26G,-2.64
5,C13G G17U A18U C40G C56A G107A C114U,-6.86
6,C13U A24G G36U C53U C79G C98U C99A,-7.05
7,C13G G57C U109A A111U,-4.71
8,C13U C49A,-0.597
9,C13G G25A C56G A91G C99U G120U,-7.51
10,C13U C31A,-5.19
11,C13G G47U G77U,-3.79
12,C13U A18C A37C G39U G57A,-6.61
13,C13G G58C C64U U92C,-3.39
14,C13G C64U C73A G120A A121U,-0.317
15,C13G U125A,-1.62
16,C13G G63A G71A U112C,-5
17,C13G C53A C82A,-2.24
18,C13U C20A C72A,-2.75
19,C13G A26G C70U C99U A119U,-4.5
20,C13G G63U C72U,-2.72
21,C13U A16G G63A U87A C98A C123G,-6.74
22,C13G C62A C94U,-3.01
23,C13G U54C C89U A90U,-3.33
24,C13U C28A G47U,-4.54

row,Variant,polymerase ribozyme fitness (log ratio)
1,C13G U32C A37G C49U,-1.77
2,C13U A29U A46U C56A C115U,-2.01
3,C13U A26C C56U,-5.2
4,C13G A90G,-1.86
5,C13G C72U C94U C101G,-4.88
6,C13G C73A U81G A121G,-1.23
7,C13G G39A G113U C114A,-4.57
8,C13G G69U G113A,-2.1
9,C13A U55C G58A G63A,-3.2
10,C13U A16C C73A A95U G117U C124G,-1.04
11,C13U C89G A90G G110C,-6.32
12,C13U C72G U81C A95C A119U,-1.87
13,C13U C62A A118U G122A,-2.35
14,C13G G117C,-4.58
15,C13U C64A,-6
16,C13U C31U A46G C72U,-4.32
17,C13G C72G C123U G135U,-0.121
18,C13U A43U U59G C72A C104U,-2.63
19,C13U C56G C72A A105U,-2.1
20,C13U C73G G117A C124A,0.844
21,C13U A46G A50U C53U U129C,-2.72
22,C13U C22G G44A C56A,-5.28
23,C13G U59G G61U U112C,-1.62
